Assay results taken from patent US9816117B2, “Methods, reagents and cells for biosynthesizing compounds” (INVISTA North America S.á r.l., priority 2014, dated 2017).

Assays:
Type in all cases: biochemical
[1] = carboxylate reductase enzyme activity assay (adipate to adipate semialdehyde); conditions: purified enzyme enhanced by sfp gene product; 2 mM adipate; room temperature, 20 min; against empty vector control (FIG. 12)
Experimental: A sequence encoding a HIS-tag was added to the genes from Segniliparus rugosus and Segniliparus rotundus that encode the carboxylate reductases of SEQ ID NOs: 4 and 6, respectively (see FIG. 9), such that N-terminal HIS tagged carboxylate reductases could be produced. Each of the modified genes was cloned into a pET Duet expression vector along with a sfp gene encoding a HIS-tagged phosphopantetheine transferase from Bacillus subtilis, both under the T7 promoter. Each expression vector was transformed into a BL21[DE3] E. coli host and the resulting recombinant E. coli strains were cultivated at 37° C. in a 250 mL shake flask culture containing 50 mL LB media and antibiotic selection pressure, with shaking at 230 rpm. Each culture was induced overnight at 37° C. using an auto-induction media.
The pellet from each induced shake flask culture was harvested via centrifugation. Each pellet was resuspended and lysed via sonication, and the cell debris was separated from the supernatant via centrifugation. […]
Enzyme activity assays (i.e., from adipate to adipate semialdehyde) were performed in triplicate in a buffer composed of a final concentration of 50 mM HEPES buffer (pH=7.5), 2 mM adipate, 10 mM MgCl2, 1 mM ATP and 1 mM NADPH. […] The consumption of NADPH was monitored by absorbance at 340 nm.

[2] = ω-transaminase enzyme activity assay, reverse direction (6-aminohexanoate to adipate semialdehyde); conditions: cell free extract; 10 mM 6-aminohexanoate, 10 mM pyruvate; 25° C., 24 h; against empty vector control (FIG. 17)
Experimental: (§1) A nucleotide sequence encoding a His-tag was added to the genes from Chromobacterium violaceum, Pseudomonas aeruginosa, Pseudomonas syringae, Rhodobacter sphaeroides, and Vibrio fluvialis encoding the ω-transaminases of SEQ ID NOs: 7, 8, 9, 10 and 12, respectively (see FIG. 9) such that N-terminal HIS tagged w-transaminases could be produced. Each of the resulting modified genes was cloned into a pET21a expression vector under control of the T7 promoter and each expression vector was transformed into a BL21[DE3] E. coli host. The resulting recombinant E. coli strains were cultivated at 37° C. in a 250 mL shake flask culture containing 50 mL LB media and antibiotic selection pressure, with shaking at 230 rpm. Each culture was induced overnight at 16° C. using 1 mM IPTG.
(§2) The pellet from each induced shake flask culture was harvested via centrifugation. Each pellet was resuspended and lysed via sonication. The cell debris was separated from the supernatant via centrifugation and the cell free extract was used immediately in enzyme activity assays.
Enzyme activity assays in the reverse direction (i.e., 6-aminohexanoate to adipate semialdehyde) were performed in a buffer composed of a final concentration of 50 mM HEPES buffer (pH=7.5), 10 mM 6-aminohexanoate, 10 mM pyruvate and 100 μM pyridoxyl 5′ phosphate. Each enzyme activity assay reaction was initiated by adding cell free extract of the ω-transaminase gene product or the empty vector control to the assay buffer containing the 6-aminohexanoate and incubated at 25° C. for 24 h, with shaking at 250 rpm. The formation of L-alanine from pyruvate was quantified via RP-HPLC.

[3] = ω-transaminase enzyme activity assay, forward direction (adipate semialdehyde to 6-aminohexanoate); conditions: cell free extract; 10 mM adipate semialdehyde, 10 mM L-alanine; 25° C., 4 h; against empty vector control (FIG. 18)
Experimental: as §1, §2
Enzyme activity in the forward direction (i.e., adipate semialdehyde to 6-aminohexanoate) was confirmed for the transaminases of SEQ ID NO 7, SEQ ID NO 8, SEQ ID NO 9, SEQ ID NO 10 and SEQ ID NO 12. Enzyme activity assays were performed in a buffer composed of a final concentration of 50 mM HEPES buffer (pH=7.5), 10 mM adipate semialdehyde, 10 mM L-alanine and 100 μM pyridoxyl 5′ phosphate. Each enzyme activity assay reaction was initiated by adding a cell free extract of the ω-transaminase gene product or the empty vector control to the assay buffer containing the adipate semialdehyde and incubated at 25° C. for 4 h, with shaking at 250 rpm. The formation of pyruvate was quantified via RP-HPLC.

[4] = carboxylate reductase enzyme activity assay (adipate semialdehyde to hexanedial); conditions: purified enzyme enhanced by sfp gene product; 2 mM adipate semialdehyde; room temperature, 20 min; against empty vector control (FIG. 15)
Experimental: The N-terminal His-tagged carboxylate reductase of SEQ ID NO 6 (see Example 2, Example 3 and FIG. 9) was assayed using adipate semialdehyde as substrate. The enzyme activity assay was performed in triplicate in a buffer composed of a final concentration of 50 mM HEPES buffer (pH=7.5), 2 mM adipate semialdehyde, 10 mM MgCl2, 1 mM ATP and 1 mM NADPH. The enzyme activity assay reaction was initiated by adding purified carboxylate reductase and phosphopantetheine transferase or the empty vector control to the assay buffer containing the adipate semialdehyde and then incubated at room temperature for 20 min. The consumption of NADPH was monitored by absorbance at 340 nm.

Molecule | carboxylate reductase activity: acceptance of adipate as substrate (consumption of NADPH, absorbance at 340 nm) [1] | ω-transaminase activity: acceptance of 6-aminohexanoate as substrate (formation of L-alanine from pyruvate, RP-HPLC) [2] | ω-transaminase activity: acceptance of adipate semialdehyde as substrate (formation of pyruvate, RP-HPLC) [3] | carboxylate reductase activity: acceptance of adipate semialdehyde as substrate (consumption of NADPH, absorbance at 340 nm) [4]
SEQ ID NO 4: Segniliparus rugosus carboxylate reductase (Genbank Accession No. EFV11917.1) (protein, listed as Segniliparus rugosus) MGDGEERAKRFFQRIGELSATDPQFAAAAPDPAVVEAVSDPSLSFTRYLDTLMRGYAERPALAHRVGAGYETISYGELWARVGAIAAAWQADGLAPGDFVATVGFTSPDYVAVDLAAARSGLVSVPLQAGASLAQLVGILEETEPKVLAASASSLEGAVACALAAPSVQRLVVFDLRGPDASESAADERRGALADAEEQLARAGRAVVVETLADLAARGEALPEAPLFEPAEGEDPLALLIYTSGSTGAPKGAMYSQRLVSQLWGRTPVVPGMPNISLHYMPLSHSYGRAVLAGALSAGGTAHFTANSDLSTLFEDIALARPTFLALVPRVCEMLFQESQRGQDVAELRERVLGGRLLVAVCGSAPLSPEMRAFMEEVLGFPLLDGYGSTEALGVMRNGIIQRPPVIDYKLVDVPELGYRTTDKPYPRGELCIRSTSLISGYYKRPEITAEVFDAQGYYKTGDVMAEIAPDHLVYVDRSKNVLKLSQGEFVAVAKLEAAYGTSPYVKQIFVYGNSERSFLLAVVVPNAEVLGARDQEEAKPLIAASLQKIAKEAGLQSYEVPRDFLIETEPFTTQNGLLSEVGKLLRPKLKARYGEALEARYDEIAHGQADELRALRDGAGQRPVVETVVRAAVAISGSEGAEVGPEANFADLGGDSLSALSLANLLHDVFEVEVPVRIIIGPTASLAGIAKHIEAERAGASAPTAASVHGAGATRIRASELTLEKFLPEDLLAAAKGLPAADQVRTVLLTGANGWLGRFLALEQLERLARSGQDGGKLICLVRGKDAAAARRRIEETLGTDPALAARFAELAEGRLEVVPGDVGEPKFGLDDAAWDRLAEEVDVIVHPAALVNHVLPYHQLFGPNVVGTAEIIRLAITAKRKPVTYLSTVAVAAGVEPSSFEEDGDIRAVVPERPLGDGYANGYGNSKWAGEVLLREAHELVGLPVAVFRSDMILAHTRYTGQLNVPDQFTRLVLSLLATGIAPKSFYQQGAAGERQRAHYDGIPVDFTAEAITTLGAEPSWFDGGAGFRSFDVFNPHHDGVGLDEFVDWLIEAGHPISRIDDHKEWFARFETAVRGLPEAQRQHSLLPLLRAYSFPHPPVDGSVYPTGKFQGAVKAAQVGSDHDVPHLGKALIVKYADDLKALGLL | accepted adipate as substrate | – | – | –
SEQ ID NO 12: Vibrio Fluvialis ω-transaminase (Genbank Accession No. AEA39183.1) (protein, Vibrio Fluvialis) MNKPQSWEARAETYSLYGFTDMPSLHQRGTVVVTHGEGPYIVDVNGRRYLDANSGLWNMVAGFDHKGLIDAAKAQYERFPGYHAFFGRMSDQTVMLSEKLVEVSPFDSGRVFYTNSGSEANDTMVKMLWFLHAAEGKPQKRKILTRWNAYHGVTAVSASMTGKPYNSVFGLPLPGFVHLTCPHYWRYGEEGETEEQFVARLARELEETIQREGADTIAGFFAEPVMGAGGVIPPAKGYFQAILPILRKYDIPVISDEVICGFGRTGNTWGCVTYDFTPDAIISSKNLTAGFFPMGAVILGPELSKRLETAIEAIEEFPHGFTASGHPVGCAIALKAIDVVMNEGLAENVRRLAPRFEERLKHIAERPNIGEYRGIGFMWALEAVKDKASKTPFDGNLSVSERIANTCTDLGLICRPLGQSVVLCPPFILTEAQMDEMFDKLEKALDKVFAEVA | – | accepted 6-aminohexanote as substrate | accepted adipate semialdehyde as substrate | –
SEQ ID NO 6: Segniliparus rotundus carboxylate reductase (Genbank Accession No. ADG98140.1) (protein, listed as Segniliparus rotundus) MTQSHTQGPQASAAHSRLARRAAELLATDPQAAATLPDPEVVRQATRPGLRLAERVDAILSGYADRPALGQRSFQTVKDPITGRSSVELLPTFDTITYRELRERATAIASDLAHHPQAPAKPGDFLASIGFISVDYVAIDIAGVFAGLTAVPLQTGATLATLTAITAETAPTLFAASIEHLPTAVDAVLATPSVRRLLVFDYRAGSDEDREAVEAAKRKIADAGSSVLVDVLDEVIARGKSAPKAPLPPATDAGDDSLSLLIYTSGSTGTPKGAMYPERNVAHFWGGVWAAAFDEDAAPPVPAINITFLPLSHVASRLSLMPTLARGGLMHFVAKSDLSTLFEDLKLARPTNLFLVPRVVEMLYQHYQSELDRRGVQDGTREAEAVKDDLRTGLLGGRILTAGFGSAPLSAELAGFIESLLQIHLVDGYGSTEAGPVWRDGYLVKPPVTDYKLIDVPELGYFSTDSPHPRGELAIKTQTILPGYYKRPETTAEVFDEDGFYLTGDVVAQIGPEQFAYVDRRKNVLKLSQGEFVTLAKLEAAYSSSPLVRQLFVYGSSERSYLLAVIVPTPDALKKFGVGEAAKAALGESLQKIARDEGLQSYEVPRDFIIETDPFTVENGLLSDARKSLRPKLKEHYGERLEAMYKELADGQANELRDIRRGVQQRPTLETVRRAAAAMLGASAAEIKPDAHFTDLGGDSLSALTFSNFLHDLFEVDVPVGVIVSAANTLGSVAEHIDAQLAGGRARPTFATVHGKGSTTIKASDLTLDKFIDEQTLEAAKHLPKPADPPRTVLLTGANGWLGRFLALEWLERLAPAGGKLITIVRGKDAAQAKARLDAAYESGDPKLAGHYQDLAATTLEVLAGDFSEPRLGLDEATWNRLADEVDFISHPGALVNHVLPYNQLFGPNVAGVAEIIKLAITTRIKPVTYLSTVAVAAGVEPSALDEDGDIRTVSAERSVDEGYANGYGNSKWGGEVLLREAHDRTGLPVRVFRSDMILAHQKYTGQVNATDQFTRLVQSLLATGLAPKSFYELDAQGNRQRAHYDGIPVDFTAESITTLGGDGLEGYRSYNVFNPHRDGVGLDEFVDWLIEAGHPITRIDDYDQWLSRFETSLRGLPESKRQASVLPLLHAFARPGPAVDGSPFRNTVFRTDVQKAKIGAEHDIPHLGKALVLKYADDIKQLGLL | accepted adipate as substrate | – | – | accepted adipate semialdehyde as substrate
